From patent US7893027B2, “Treatment of ocular wounds and ulcers” (The Board of Regents of the University of Oklahoma, priority 2002, dated 2011) come the findings set out here.

This assay deals with PECAM-1 (CD31). Put plainly: Flow cytometry of PECAM-1 expression on HCEC. The assay is classed as cell-based, human. The settings on record: CAP37 1 μg/ml. The procedure: Flow cytometry was used to assess the upregulation of PECAM-1 (CD31), and the integrin molecules β1 (CD29), β2 (CD18), β3 (CD61), β4 (CD104), α1 (CD49a), α2 (CD49b), α3 (CD49c), α4 (CD 49d), and αv (CD51). Human corneal epithelial cells were cultured as above and treated with CAP37 (0-2000 ng/ml) for 0-72 hr. A corresponding culture was left untreated at each time point. Following treatment with CAP37, cells were detached with 0.25% trypsin in 1 mM EDTA (pH 7.4, FISHER SCIENTIFIC, Pittsburgh, Pa.), washed twice in PBS and fixed with 0.125% paraformaldehyde (J.T. BAKER, Phillipsburg, N.J.) overnight at 4° C. The cells were washed in PBS and then incubated in 0.5% normal goat serum and 0.5% bovine serum albumin (BSA) in PBS for 30 min to block non-specific binding sites. Cells were incubated in the primary antibody (at concentrations described below) at 4° C. for 1 hr followed by the secondary antibody (FITC-goat anti-mouse IgG, PHARMINGEN, San Diego, Calif.) at 0.5 μg/10^6 cells and incubated at 4° C. for 30 min. The isotype control for these studies was FITC-labeled mouse isotype IgG1 (PHARMINGEN). The cells were analyzed by flow cytometry (FACS Calibur, BECTON DICKINSON, San Jose, Calif.). At least ten thousand cells were analyzed for each sample. […]
On the technique in general: Flow cytometry measures light scatter and fluorescence of single cells or particles in a stream.

B1: CAP37: Cationic Antimicrobial Protein of Mr 37 kDa; recombinant protein from human 293 cells, identical to native PMN-derived CAP37 (SEQ ID NO:1) (protein, listed as Homo sapiens)
chain: IVGGRKARPRQFPFLASIQNQGRHFCGGALIHARFVMTAASCFQSQNPGVSTVVLGAYDLRRRERQSRQTFSISSMSENGYDPQQNLNDLMLLQLDREANLTSSVTILPLPLQNATVEAGTRCQVAGWGSQRSGGRLSRFPRFVNVTVTPEDQCRPNNVCTGVLTRRGGICNGDGGTPLVCEGLAHGVASFSLGPCGRGPDFFTRVALFRDWIDGVLNNPGP
For B1, the PECAM-1 protein expression entry (24 hr) is listed as “waned” and the PECAM-1 protein expression result (at 6 hr, maintained through 12 hr) was “Significant protein expression”.
